Results published in patent publication US20040005687A1, “Kinase crystal structures” (priority 2001, published 2004).
Where two headings read alike, the source gives them in different places. Square brackets hold non-standard residues; d marks the D form. Ends that are not written are not given here. Peptide text beside a SMILES is read from it. pS = N[C@@H](COP(=O)(O)O)C(=O)O

What was measured:
[1] = target: T1, pΔPH-PKB-ΔC (PKBβ residues 146 to 460, phosphorylated in vitro on Thr-309) (Homo sapiens, UniProt P31751); test: Protein kinase B assay, peptide stimulation of pΔPH-PKB-ΔC (Crosstide substrate); assay type: biochemical; conditions: for maximal fold induction at 600 µM: read-out: maximum activation (fold stimulation) of pΔPH-PKB-ΔC kinase activity; for fold lower affinity than PIFtide (from EC50 values): relative to PIFtide
T1 construct: pΔPH-PKB-ΔC (residues 146 to 460, phosphorylated in vitro on Thr-309); 6xHis (pFastBacHTa, TEV-cleavable) (N, cleaved yes); made in house; host or cells: Sf9 insect cells / baculovirus
T1 sequence (P31751 146-460, stated change not applied): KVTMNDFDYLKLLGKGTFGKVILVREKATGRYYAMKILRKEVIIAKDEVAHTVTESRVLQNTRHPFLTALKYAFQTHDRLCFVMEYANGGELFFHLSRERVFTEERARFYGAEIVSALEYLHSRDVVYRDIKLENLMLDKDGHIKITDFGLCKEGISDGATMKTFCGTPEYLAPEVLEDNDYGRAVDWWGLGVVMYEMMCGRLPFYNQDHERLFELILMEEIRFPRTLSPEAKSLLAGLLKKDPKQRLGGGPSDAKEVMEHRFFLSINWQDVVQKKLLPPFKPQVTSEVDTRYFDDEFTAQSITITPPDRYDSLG
Protocol: To test the model that Ser 474 phosphorylation promotes an interaction between the hydrophobic motif and the induced hydrophobic groove of the N-terminal lobe, thereby causing an allosteric activation of the kinase, the ability of peptides modelled on the hydrophobic motif of PKB to activate the enzyme via an intermolecular association with the N-terminal lobe was assessed.
(§1) PKB was assayed essentially as described by Andjelkovic et al. (1999) with 30 μM Crosstide (GRPRTSSAEG) as substrate except the protein kinase A inhibitor peptide was not added to the reactions. For peptide stimulation experiments the various peptides were dissolved in water and added to the kinase assay mix prior to adding the PKB protein. Peptides were synthesized by Franz Fischer at the FMI or purchased from Neosystem, Strasburg, France.
(§2) All experiments were performed in either duplicate or triplicate.

[2] = target: T2, ΔPH-PKB phosphorylated on Thr 309 (Homo sapiens, UniProt P31751); test: Protein kinase B assay, peptide stimulation of ΔPH-PKB phosphorylated on Thr 309; assay type: biochemical
T2 construct: ΔPH-PKBβ (residues 146-481) on Thr309 Using PDK1; 6xHis (pFastBacHTa, TEV-cleavable) (N, cleaved yes); made in house; host or cells: Sf9 insect cells / baculovirus
T2 sequence (P31751 146-481, stated change not applied): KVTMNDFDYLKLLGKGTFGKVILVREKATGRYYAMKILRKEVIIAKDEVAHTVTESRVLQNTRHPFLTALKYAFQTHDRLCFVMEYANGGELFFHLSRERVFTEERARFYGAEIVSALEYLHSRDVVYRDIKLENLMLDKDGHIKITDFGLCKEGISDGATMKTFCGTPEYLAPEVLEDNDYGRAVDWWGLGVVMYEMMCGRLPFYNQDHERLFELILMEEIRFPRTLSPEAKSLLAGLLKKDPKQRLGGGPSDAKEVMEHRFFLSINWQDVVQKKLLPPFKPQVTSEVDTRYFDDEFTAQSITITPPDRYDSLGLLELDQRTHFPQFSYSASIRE
Protocol: as §1, §2

[3] = target: T3, His tagged pΔPH-PKB-ΔC wild type (Homo sapiens, UniProt P31751); test: PIFtide responsiveness of His tagged pΔPH-PKB-ΔC wild type expressed in HEK cells; assay type: biochemical
T3 construct: pΔPH-PKB-ΔC (residues 146 to 460, phosphorylated in vitro on Thr-309); His tag; made in house; host or cells: HEK cells (transient expression), purified on Ni-NTA
T3 sequence (P31751 146-460, stated change not applied): as the sequence (P31751 146-460, stated change not applied) above
Protocol: To test the notion that a hydrophobic groove is induced in PKB to engage the hydrophobic motif, and activate the kinase, a series of His tagged pΔPH-PKB-ΔC hydrophobic groove mutants was prepared and their responsiveness to PIFtide assessed. PKB mutants were transiently expressed in HEK cells, phosphorylated in vitro with PDK1, and purified using Ni-NTA agarose.
Wild type PKB prepared using this procedure was stimulated ˜5-fold by 130 μM PIFtide (FIG. 6B).
as §1

[4] = target: T4, ΔPH-PKB-ΔC (PKBβ residues 146 to 460, not phosphorylated on Thr-309) (Homo sapiens, UniProt P31751); test: Protein kinase B assay, peptide stimulation of ΔPH-PKB-ΔC with unphosphorylated Thr 309; assay type: biochemical
T4 construct: ΔPH-PKB-ΔC(residues 146 to 460, not phosphorylated on Thr-309); 6xHis (pFastBacHTa, TEV-cleavable) (N, cleaved yes); made in house; host or cells: Sf9 insect cells / baculovirus
T4 sequence (P31751 146-460, stated change not applied): as above
Protocol: as §1, §2

[5] = target: T5, ΔPH-PKB phosphorylated on both Thr 309 and Ser 474 (Homo sapiens, UniProt P31751); test: Protein kinase B assay, peptide stimulation of ΔPH-PKB phosphorylated on both Thr 309 and Ser 474; assay type: biochemical
T5 construct: ΔPH-PKBβ (residues 146-481) on Thr309 Using PDK1; 6xHis (pFastBacHTa, TEV-cleavable) (N, cleaved yes); made in house; host or cells: Sf9 insect cells / baculovirus
T5 sequence (P31751 146-481, stated change not applied): as the sequence (P31751 146-481, stated change not applied) above
Protocol: as §1, §2

[6] = target: ΔPH-PKBβ-ΔC (human PKBβ residues 146-460, not phosphorylated on Thr-309) (human) (UniProt P31751); test: isothermal titration calorimetry, PIFtide titrated into the kinase domain
[7] = target: pΔPH-PKBβ-ΔC (human PKBβ residues 146-460, phosphorylated in vitro on Thr-309) (human) (UniProt P31751); test: as above
[8] = target: ΔPH-PKBβ-ΔC (human PKBβ residues 146-460, not phosphorylated on Thr-309) (human) (UniProt P31751); test: isothermal titration calorimetry
[9] = target: pΔPH-PKBβ-ΔC (human PKBβ residues 146-460, phosphorylated in vitro on Thr-309) (human) (UniProt P31751); test: cell-based or functional assay
[10] = target: His tagged pΔPH-PKB-ΔC, wild type, expressed in HEK cells (human) (UniProt P31751); test: cell-based or functional assay
Sequence of His tagged pΔPH-PKB-ΔC, wild type, expressed in HEK cells (human) (P31751 146-460, stated change not applied): as the sequence (P31751 146-460, stated change not applied) above

[11] = target: His tagged pΔPH-PKB-ΔC V194A-V198A mutant (human) (UniProt P31751); test: cell-based or functional assay
Sequence of His tagged pΔPH-PKB-ΔC V194A-V198A mutant (human) (P31751 146-460 V194A/V198A): as the sequence (P31751 146-460, stated change not applied) above, with V49A, V53A counted along it

[12] = target: ΔPH-PKB (human PKBβ residues 146-481) phosphorylated on Thr 309 (human) (UniProt P31751); test: cell-based or functional assay
[13] = target: pΔPH-PKBβ-ΔC (human PKBβ residues 146-460, phosphorylated in vitro on Thr-309) (human) (UniProt P31751); test: cell-based or functional assay; remark: listed apart in the source

Which maximal fold induction at 600 µM [1] does the source give for `CC[C@H](C)[C@H](NC(=O)[C@H](Cc1ccc(O)cc1)NC(=O)[C@H](CC(=O)O)NC(=O)[C@H](Cc1ccccc1)NC(=O)[C@H](CC(=O)O)NC(=O)[C@H](CCCNC(=N)N)NC(=O)[C@H](Cc1ccccc1)NC(=O)[C@H](CCSC)NC(=O)[C@H](CCC(=O)O)NC(=O)[C@H](CCC(N)=O)NC(=O)[C@H](CCC(=O)O)NC(=O)[C@H](CCC(=O)O)NC(=O)[C@H](CCC(=O)O)NC(=O)[C@H](CO)NC(=O)[C@H](CC(C)C)NC(=O)[C@@H](NC(=O)[C@H](CCCNC(=N)N)NC(=O)[C@@H]1CCCN1C(=O)[C@H](CCC(=O)O)NC(=O)[C@@H](N)CCCNC(=N)N)[C@@H](C)CC)C(=O)N[C@@H](C)C(=O)N[C@@H](CC(=O)O)C(=O)N[C@@H](Cc1c[nH]c2ccccc12)C(=O)O` [PIFtide, reference compound] (H-REPRILSEEEQEMFRDFDYIADW-OH; N-terminus and C-terminus assumed) here?
The maximal fold induction at 600 µM was 15.

And the “activation of ΔPH-PKB phosphorylated on Thr 309” value [2]?
Its value is 5 fold.

What about the fold induction at 130 µM ([3]; read-out: stimulation of wild type PKB prepared from HEK cells) of the same molecule?
Its fold induction at 130 µM is about 5.

How did the maximal fold induction at 600 µM [1] turn out when `CC[C@H](C)[C@H](NC(=O)[C@H](CO)NC(=O)[C@H](C)NC(=O)[C@H](CO)NC(=O)[C@H](Cc1ccc(O)cc1)NC(=O)[C@H](CC(=O)O)NC(=O)[C@H](Cc1ccccc1)NC(=O)[C@H](CCC(N)=O)NC(=O)[C@@H]1CCCN1C(=O)[C@H](Cc1ccccc1)NC(=O)[C@H](Cc1c[nH]cn1)NC(=O)[C@@H](NC(=O)[C@H](CCCNC(=N)N)NC(=O)[C@H](CCC(N)=O)NC(=O)[C@H](CC(=O)O)NC(=O)[C@H](CC(C)C)NC(=O)[C@H](CCC(=O)O)NC(=O)[C@H](CC(C)C)NC(=O)[C@H](CC(C)C)NC(=O)CN)[C@@H](C)O)C(=O)N[C@@H](CCCNC(=N)N)C(=O)N[C@@H](CCC(=O)O)C(=O)O` [PKB HM-D] (H-GLLELDQRTHFPQFDYSASIRE-OH; N-terminus and C-terminus assumed) was run?
Its maximal fold induction at 600 µM is 3.

What about the “fold lower affinity than PIFtide (from EC50 values)” value [1] of the same molecule?
Its value is about 1000 fold.

What does the source list for `CC[C@H](C)[C@H](NC(=O)[C@H](CO)NC(=O)[C@H](C)NC(=O)[C@H](CO)NC(=O)[C@H](Cc1ccc(O)cc1)NC(=O)[C@H](COP(=O)(O)O)NC(=O)[C@H](Cc1ccccc1)NC(=O)[C@H](CCC(N)=O)NC(=O)[C@@H]1CCCN1C(=O)[C@H](Cc1ccccc1)NC(=O)[C@H](Cc1c[nH]cn1)NC(=O)[C@@H](NC(=O)[C@H](CCCNC(=N)N)NC(=O)[C@H](CCC(N)=O)NC(=O)[C@H](CC(=O)O)NC(=O)[C@H](CC(C)C)NC(=O)[C@H](CCC(=O)O)NC(=O)[C@H](CC(C)C)NC(=O)[C@H](CC(C)C)NC(=O)CN)[C@@H](C)O)C(=O)N[C@@H](CCCNC(=N)N)C(=O)N[C@@H](CCC(=O)O)C(=O)O` [PKB HM-P, GLLELDQRTHFPQFpSYSASIRE] (H-GLLELDQRTHFPQF[pS]YSASIRE-OH; N-terminus and C-terminus assumed)?
activation of ΔPH-PKB-ΔC with unphosphorylated Thr 309 (in words) [4]: unable to activate; maximal fold induction at 600 µM [1]: 4; fold lower affinity than PIFtide (from EC50 values) ([1]; listed as phosphorylated HM-peptide): ~1000 fold; further activation of ΔPH-PKB phosphorylated on both Thr 309 and Ser 474 (in words) [5]: did not further activate; activation of wild type PKB prepared from HEK cells (in words) [3]: did not elicit measurable activation

For GLLELDQRTHFPQFSYSASIRE [PKB HM-S], which “stimulation of pΔPH-PKB-ΔC kinase activity (in words)” value ([1]; Crosstide substrate, dose response FIG. 5) is on record?
Its value is “did not stimulate”.

Which “activation of pΔPH-PKB-ΔC by modified PIFtide and HM peptides (in words)” value ([1]; PIFtide concentrations 210-250 μM, PKB HM-peptide up to 1.2 mM, FIG. 6A) does the source give for “MFRDFDYIADW [PIFtide1, 11-residue peptide encompassing the six-residue hydrophobic motif of PIFtide]” here?
The value was “essentially recapitulates the activation”.

Which Kd [6] does the source give for PIFtide (peptide) here?
Its Kd is 5.5 µM.

What about the Kd [7] of the same molecule?
The Kd was 6 µM.

What about the enthalpy change (ΔH) [8] of the same molecule?
The enthalpy change (ΔH) was -16 kcal/mol.

What about the entropy term (TΔS) [8] of the same molecule?
Its entropy term (TΔS) is -9.2 kcal/mol.

What about the EC50 of kinase activation [9] of the same molecule?
Its EC50 of kinase activation is 3 µM.

What about the peptide concentration giving maximum activation [9] of the same molecule?
Its peptide concentration giving maximum activation is 20 µM.

And the specific activity when maximally activated by PIFtide [9]?
Its specific activity when maximally activated by PIFtide is 350 nmol/min/mg.

And the stimulation of kinase activity towards Crosstide [9]?
Its stimulation of kinase activity towards Crosstide is 15 fold.

What about the stimulation of kinase activity by 130 µM PIFtide [10] of the same molecule?
The stimulation of kinase activity by 130 µM PIFtide was 5 fold.

And the PIFtide activation relative to wild type (% of wild type) [11]?
Its PIFtide activation relative to wild type (% of wild type) is 25.

And the stimulation of kinase activity towards Crosstide [12]?
Its stimulation of kinase activity towards Crosstide is 5 fold.

Which results are given for GLLELDQRTHFPQF[pS]YSASIRE [PKB HM-P]?
EC50 of kinase activation (estimated from FIG. 5A) [13]: 2300 µM; fold lower affinity than PIFtide, from estimated EC50 [13]: 1000 fold; stimulation of kinase activity towards Crosstide [13]: 4 fold

Which results are given for GLLELDQRTHFPQFDYSASIRE [PKB HM-D]?
EC50 of kinase activation (estimated from FIG. 5A) [13]: 3600 µM; fold lower affinity than PIFtide, from estimated EC50 [13]: 1000 fold; stimulation of kinase activity towards Crosstide [13]: 3 fold
